Measurements: patent US9827292B2, “Use of KGF in the treatment of menopausal disorders” (Università degli Studi di Roma “La Sapienza”, priority 2012, dated 2017)

Assay: In vitro release test of Pluronic F127 hydrogel with model molecules
Type: physicochemical
Details: F127 20% w/v, 60 ml H2O, 37° C., FIG. 6D
Method: 2 mL of loaded hydrogel containing 4 mg of myoglobin or prednisolone in a solution of 20% Pluronic F127 w/v were introduced into a dialysis membrane bag (MWCO 3500 Da), and the dialysis bag sealed at the end was incubated in 60 mL of release medium (distilled water) at 37° C. and was stirred at a rate of 50 rpm. Saturation conditions were avoided by means of frequent substitution of fresh water. At predetermined intervals, aliquots of 0.5 mL of release medium were removed and substituted with an equal volume of fresh solution. The release behaviour in vitro of hydrogel loaded with myoglobin was compared with that of hydrogel loaded with prednisolone. All the assays were conducted in triplicate. Release profiles were expressed in cumulative release percentages over time.
The loaded hydrogels were prepared by solubilising at low temperature, in a 5 ml vial, an exact quantity of model molecule (approximately 4-5 mg) in 2 ml of solution of F127 20% w/v; the solution was then brought to the hydrogel state by placing the hermetically sealed vial at 37° C. The vial, closed at the head with a perforated mesh, was then introduced into the release medium (60 ml bidistilled H2O, T=37° C.) and held under constant and gentle stirring. The release therefore occurred by means of diffusion from the upper surface of the gel to the dissolution medium. […]

Row | Compound | release profile from Pluronic F127 hydrogel, comparison of the two model molecules
1 | myoglobin | almost identical for the two different molecules
2 | C[C@]12C=CC(=O)C=C1CC[C@@H]1[C@@H]2[C@@H](O)C[C@@]2(C)[C@H]1CC[C@]2(O)C(=O)CO [prednisolone] | almost identical for the two different molecules
